Measured values from US20240109962A1 (SPARX BIOSCIENCE, published 2024).
Numbering of substitutions follows the chain as printed.

B1: Antibody 7G4 (antibody, V domains shown)
VH: QVQLKQSGPGLVQPSQSLSITCTVSGFSLATYGVHWVRQSPGKGLEWLGVMWRDGSTDYNAVFMSRLSITKDDSKSQVFFKMNSLQADDTAIYYCAKNPYLYGSSHYYAMDYWGQGTSVTVSS
VL: DIVMTQSPSSLSVSAGEKVTMSCKSSQSLLNSENQKNYLAWYQQKPGQPPKLLIYGASTRESGVPDRFTGSGSGTDFTLTISSVQAEDLAVYYCQNDHIYPFTFGSGTKLEIK
notes: Mouse hybridoma mAb purified from ascites
B2: Antibody 13C5 (antibody, V domains shown)
VH: B1 VH with A30T, Y32F, M51I, D54G, V62A, D73N, L101Q
VL: B1 VL with E33G, D76V, Y100L
notes: as for B1
B3: Antibody 2F1 (antibody, V domains shown)
VH: EVKLEESGGGLVQPGGSMKLSCAASGFTFSDAWMDWVRQSPKKGLEWVAEIRSKSNNHTTYYAESVKGRFTISRDDSKSSVYLQMNSLRAEDTGIYYCTRDWLTYWGQGTLVTVSA
VL: DIVLTQSPASLAVSLGQRATISCRASKSVSTSGYSYMNWYQQKPGQPPKLLIYLASNLESGVPARFSGSGSGTDFTLNIHPVEEEDAATYYCQHSRELPLTFGAGTKLELK
notes: as for B1
B4: Antibody 13H5 (antibody, V domains shown)
VH: EIQLQQSGPELVKPGTSVKVSCKASGSSFTDYNMYWVKQSHGKSLDWIGYIDPYNGRTTYNQKFRGKATLTVDKSSSTAFMHLNSLTSEDSAVYYCARGDYFDYWGQGTSLTVSS
VL: EIQMTQTTSSLSASLGDRVTISCSASQGISNYLNWFQQKPDGTVKLLIYYTSTLHSGVPSRFSGSGSGTDFSLTISNLDPEDFATYYCQQYSNLPYTFGGGTKLEIK
notes: as for B1
B5: Antibody 2E1_FC3 (antibody, V domains shown)
VH: EVQLVESGGGLVQPGGSLRLSCAVSGYSITSGYYWNWIRQAPGKGLEWVAYISYDGNTNYNPSLKNRFTISRDTSKNTFYLQMNSLRAEDTAVYYCAREESTMITTAWFAYWGQGTLVTVSS
VL: DIQMTQSPSSLSASVGDRVTITCRASENIYSNLAWYQQKPGKAPKLLIYGATNLASGVPSRFSGSGSGTDYTLTISSLQPEDFATYYCQHFWDTPYTFGQGTKVEIK
B6: Antibody 2E1_FD3 (antibody, V domains shown)
VH: B5 VH with T58A
VL: B5 VL
B7: Antibody 2E1_FD4 (antibody, V domains shown)
VH: B5 VH with T58P
VL: B5 VL
B8: Antibody 2E1_FF4 (antibody, V domains shown)
VH: B5 VH with T58N, N59W
VL: B5 VL
B9: Antibody 2E1_FG2 (antibody, V domains shown)
VH: B5 VH
VL: B5 VL with T97V
B10: Antibody 2E1_FG4 (antibody, V domains shown)
VH: B5 VH with T58V
VL: B5 VL with T97I
B11: Antibody 2E1_FH2 (antibody, V domains shown)
VH: B5 VH with Y51S, T58N
VL: B5 VL
B12: Antibody 2E1_FH9 (antibody, V domains shown)
VH: B5 VH with T58N, N59L
VL: B5 VL
B13: Antibody 2E1_GB1 (antibody, V domains shown)
VH: B5 VH with Y34S, T58N
VL: B5 VL
B14: Antibody 2E1_GB11 (antibody, V domains shown)
VH: B5 VH with T58N
VL: B5 VL with S56L
B15: Antibody 2E1_GD9 (antibody, V domains shown)
VH: B5 VH with T58N
VL: B5 VL with Y30F
B16: Antibody 2E1_GE11 (antibody, V domains shown)
VH: B5 VH with Y34S, T58N
VL: B5 VL with R24G, N53E
B17: Antibody 2E1_GF1 (antibody, V domains shown)
VH: B5 VH with T58N
VL: B5 VL with N28V
B18: Antibody 2E1_GF9 (antibody, V domains shown)
VH: B5 VH with Y34S, T58N
VL: B5 VL with N28T, S56A
B19: Antibody 2E1_GH6 (antibody, V domains shown)
VH: B5 VH with Y34H, T58N
VL: B5 VL

molecular target: LILRB2 antigen of the ELISA of Table 5 (format not specified) (UniProt Q8N423 22-460, limits assumed); assay: ELISA, antibody titration
Sequence (Q8N423 22-460 limits assumed): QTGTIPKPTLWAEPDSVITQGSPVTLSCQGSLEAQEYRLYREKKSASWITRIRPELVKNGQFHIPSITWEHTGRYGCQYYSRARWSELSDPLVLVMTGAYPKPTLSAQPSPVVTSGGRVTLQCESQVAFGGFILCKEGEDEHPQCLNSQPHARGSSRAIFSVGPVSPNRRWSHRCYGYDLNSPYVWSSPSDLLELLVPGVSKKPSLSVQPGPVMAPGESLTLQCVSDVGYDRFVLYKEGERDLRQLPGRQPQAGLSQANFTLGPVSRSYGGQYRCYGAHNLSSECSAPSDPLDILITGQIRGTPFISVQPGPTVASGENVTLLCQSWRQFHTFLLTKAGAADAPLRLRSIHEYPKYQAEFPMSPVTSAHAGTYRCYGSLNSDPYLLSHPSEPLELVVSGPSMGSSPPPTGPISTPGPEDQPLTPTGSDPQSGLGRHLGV

Compared with B1, B2 is 4.9-fold lower in Kd: 1.53 nM for the first, 0.314 nM for the second. The second binds more tightly here.

Going from B3 to B4, the Kd falls from 2.18 nM to 1.39 nM (1.6-fold).

molecular target: T1, His-tagged human LILRB2 polypeptide (human, UniProt Q8N423 22-460); assay: SPR, antibody on CM5 chip, His-LILRB2 analyte, 1:1 model
T1 construct: SPR analyte; also called His-tagged human LILBR2 polypeptide; not shown: His tag
T1 sequence (Q8N423 22-460 limits assumed): as above
Procedure: Surface plasmon resonance (SPR) was used to examine binding activities of exemplary anti-LILBR2 antibodies disclosed herein. Briefly, the anti-LILBR2 antibody was diluted in a coating buffer to a concentration of 30 μg/ml, loaded onto CM5 chips at 10 μl/min to allow coating of the antibody on the surface of the CM5 chip. […] Binding affinity was measured based on the 1:1 binding model.

Work on B1 yielded a Kd of 1.57 nM.

With B1 the koff was 0.000677 s⁻¹.

Work on B1 yielded a kon of 432000 M⁻¹ s⁻¹.

molecular target: T2, human LILRB2 expressed on cells (293T-LILRB2, CHO-K1-LILRB2) (human, UniProt Q8N423 22-597); assay: flow cytometry, His-HLA-A2 tetramer (competitor) bound to 293T-LILRB2 cells, relative to no antibody; parameters: concentration or dose not given beside the values
T2 construct: whole, on cells; the cell line is named under assay; also called HEK293T-LILRB2
T2 sequence (Q8N423 22-597): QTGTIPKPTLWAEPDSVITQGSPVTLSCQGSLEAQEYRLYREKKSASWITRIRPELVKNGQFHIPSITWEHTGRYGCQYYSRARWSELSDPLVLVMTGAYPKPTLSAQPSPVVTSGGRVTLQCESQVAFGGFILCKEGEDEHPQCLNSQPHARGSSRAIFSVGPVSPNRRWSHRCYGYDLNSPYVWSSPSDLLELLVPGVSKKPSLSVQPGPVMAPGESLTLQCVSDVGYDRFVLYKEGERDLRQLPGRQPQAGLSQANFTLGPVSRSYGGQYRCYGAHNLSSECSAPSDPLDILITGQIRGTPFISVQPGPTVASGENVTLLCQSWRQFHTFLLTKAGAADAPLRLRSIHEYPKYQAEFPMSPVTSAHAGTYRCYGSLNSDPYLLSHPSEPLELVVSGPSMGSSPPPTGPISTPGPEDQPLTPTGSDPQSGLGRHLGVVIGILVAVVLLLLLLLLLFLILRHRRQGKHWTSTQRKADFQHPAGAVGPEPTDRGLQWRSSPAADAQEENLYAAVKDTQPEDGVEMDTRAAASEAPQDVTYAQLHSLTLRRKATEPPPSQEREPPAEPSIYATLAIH
Procedure: Serial diluted h#2E1 antibodies were then added to the mixture and incubated at room temperature for another 45 minutes. […]

Going from B5 to B6, the “% no Ab” value falls from 52.1% to 51%.

First: B7
Second: B8
The “% no Ab” value of the first is lower: 49% for the first, 53.3% for the second.

Going from B9 to B10, the “% no Ab” value rises from 53.6% to 55.4%.

Going from B11 to B12, the “% no Ab” value falls from 51.5% to 47.1%.

Compared with B13, B14 is lower in “% no Ab” value: 50.9% for the first, 50.1% for the second.

Compared with B15, B16 is lower in “% no Ab” value: 52.9% for the first, 46.2% for the second.

First: B17
Second: B18
The “% no Ab” value of the first is higher: 47.9% for the first, 46.2% for the second.

B19 was tested, and the “% no Ab” value was 46.6%.

molecular target: T3, human LILRB1 expressed on 293T cells (human, UniProt Q8NHL6 24-650); assay: flow cytometry on 293T transfectants, MFI
T3 construct: whole, on cells
T3 sequence (Q8NHL6 24-650): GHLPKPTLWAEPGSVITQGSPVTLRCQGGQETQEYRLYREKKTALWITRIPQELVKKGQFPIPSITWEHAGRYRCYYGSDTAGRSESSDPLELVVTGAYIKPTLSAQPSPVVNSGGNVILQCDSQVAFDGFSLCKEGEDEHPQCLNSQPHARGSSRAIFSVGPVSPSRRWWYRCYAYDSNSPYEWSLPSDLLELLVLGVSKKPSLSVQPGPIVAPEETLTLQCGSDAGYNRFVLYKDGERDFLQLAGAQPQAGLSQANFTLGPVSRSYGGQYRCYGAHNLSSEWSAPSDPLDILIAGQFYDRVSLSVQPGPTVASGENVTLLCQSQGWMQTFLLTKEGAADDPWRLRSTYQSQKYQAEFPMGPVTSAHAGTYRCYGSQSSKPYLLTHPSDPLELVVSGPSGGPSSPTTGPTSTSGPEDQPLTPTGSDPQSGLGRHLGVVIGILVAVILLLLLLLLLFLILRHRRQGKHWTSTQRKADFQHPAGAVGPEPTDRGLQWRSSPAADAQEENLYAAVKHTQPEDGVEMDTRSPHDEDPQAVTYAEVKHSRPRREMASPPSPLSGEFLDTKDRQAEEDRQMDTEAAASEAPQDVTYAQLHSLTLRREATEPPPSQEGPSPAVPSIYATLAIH
Procedure: (§1) The cells were then immobilized with glutaraldehyde in the presence of 5% defatted milk at room temperature for 2 hours. An anti-LILRB2 antibody (5 μg/ml) was added to each well and incubated at room temperature for 1 hours. An Alex Flour®-labelled goat anti-mouse secondary antibody (1:2,000 dilution) was then added into each well and incubated at room temperature for 30′. The cells were washed twice with PBS after the staining. Fluorescence intensities (MFI) were measured.

B1: no binding (tested: 5 µg/ml).
B2: no binding (tested: 5 µg/ml).
B3: no binding (tested: 5 µg/ml).

molecular target: T4, human LILRB3 expressed on 293T cells (human, UniProt O75022 24-631); assay: flow cytometry on 293T transfectants, MFI
T4 construct: whole, on cells
Procedure: as §1

B1: no binding (tested: 5 µg/ml).
B2: no binding (tested: 5 µg/ml).
B3: no binding (tested: 5 µg/ml).
B4: no binding (tested: 5 µg/ml).

molecular target: T2, human LILRB2 expressed on cells …; assay: flow cytometry, 293T-LILRB2 cells
Description: The fluorescent signals were detected by flow cytometry.

Going from B5 to B6, the Bmax rises from 456000 to 460000.

Compared with B7, B8 is higher in Bmax: 431000 for the first, 462000 for the second.

Going from B9 to B10, the Bmax rises from 417000 to 434000.

Compared with B11, B12 is higher in Bmax: 420000 for the first, 684000 for the second.

Going from B13 to B14, the Bmax falls from 637000 to 627000.

Going from B15 to B16, the Bmax falls from 724000 to 658000.

Going from B17 to B18, the Bmax falls from 706000 to 639000.

B19 gave a Bmax of 678000.

molecular target: T5, recombinant human LILRB2 protein (human, UniProt Q8N423 22-460, limits assumed); assay: ELISA, coated recombinant human LILRB2; parameters: unit not given here
T5 construct: also called recombinant LILRB2 protein
T5 sequence (Q8N423 22-460 limits assumed): as the sequence (Q8N423 22-460 limits assumed) above
Procedure: This affinity maturation library was screened against human LILRB2 to identify antibodies having high binding affinity to LILRB2. Briefly, an ELISA plate was coated with 0.1 ug/well recombinant human LILRB2 protein. Serial diluted maturated h#2E1 antibodies were incubated in the LILRB2 coated plate for 2 hrs. The plate was washed and a secondary HRP-labeled anti-human IgG was then added to each well. After being incubated at room temperature for 1 hour, the colorimetric ELISA signals were developed by adding the TMB substrate and reaction was stopped by 1M H3PO4. Table 7 below provides binding activities of exemplary matured antibodies to recombinant LILRB2 protein.

Compared with B5, B6 is lower in Bmax: 1.29 for the first, 1.28 for the second.

Going from B7 to B8, the Bmax rises from 1.14 to 1.59.

Compared with B9, B10 is higher in Bmax: 1.26 for the first, 1.4 for the second.

Compared with B11, B12 is higher in Bmax: 0.989 for the first, 1.24 for the second.

First: B13
Second: B14
The Bmax of the first is lower: 1.01 for the first, 1.16 for the second.

Compared with B15, B16 is lower in Bmax: 1.39 for the first, 1.37 for the second.

First: B17
Second: B18
The Bmax of the first is higher: 1.5 for the first, 1.14 for the second.

With B19 the Bmax was 1.26.

molecular target: T2, human LILRB2 expressed on cells …; assay: flow cytometry, blockade of His-tagged HLA-G tetramer binding to 293T-LILRB2 cells; fit table under the graph
Procedure: (§2) Serial diluted humanized LILRB2 antibodies were then added to the mixture and incubated at room temperature for another 45 minutes. The binding of HLA-G/LILRB2 was detected afterwards using a secondary PE-labeled anti-His tag antibody via flow cytometry.

Compared with B5, B6 is 1.9-fold higher in IC50: 0.122 nM for the first, 0.232 nM for the second. The first is the more potent here.

In the case of B8, the IC50 is reported as 0.254 nM.

Compared with B5, B6 is lower in Span: 9690 RFU for the first, 6750 RFU for the second.

B8 gave a Span of 6670 RFU.

molecular target: T6, LILRB3-His; assay: ELISA on recombinant His-tagged protein, OD450
T6 construct: also called His-tagged LILRB3; recombinant LILRB3 protein

B4: no binding.

molecular target: T2, human LILRB2 expressed on cells …; assay: flow cytometry, blockade of His-tagged HLA-G tetramer binding to 293T-LILRB2 cells; fit table under the graph; remark: another data set of the same source
Procedure: as §2

Going from B14 to B17, the IC50 falls from 0.59 nM to 0.331 nM (1.8-fold).

With B19 the IC50 was 0.596 nM.

First: B14
Second: B17
The Span of the first is higher: 8170 RFU for the first, 6980 RFU for the second.

Binder B19 has a Span of 5760 RFU.
